{"source": "patent US20180222958A1", "about": "(ONCOMED PHARMACEUTICALS, published 2018)", "binders": {"B1": {"name": "363F1 mFc-mLTαββ (Fc fusion)", "chain": "GCKPCICTVPEVSSVFIFPPKPKDVLTITLTPKVTCVVVDISKDDPEVQFSWFVDDVEVHTAQTQPREEQFASTFRSVSELPIMHQDWLNGKEFKCRVNSAAFPAPIEKTISKTKGRPKAPQVYTIPPPKEQMAKDKVSLTCMITDFFPEDITVEWQWNGQPAENYKNTQPIMDTDGSYFVYSKLNVQKSNWEAGNTFTCSVLHEGLHNHHTEKSLSHSPGKKPAAHLVGYPSKQNSLLWRASTDRAFLRHGFSLSNNSLLIPTSGLYFVYSQVVFSGESCSPRAIPTPIYLAHEVQLFSSQYPFHVPLLSAQKSVYPGLQGPWVRSMYQGAVFLLSKGDQLSTHTDGISHLHFSPSSVFFGAFALLNPELPAAHLIGAWMSGQGLSWEASQEEAFLRSGAQFSPTHGLALPQDGVYYLYCHVGYRGRTPPAGRSRARSLTLRSALYRAGGAYGRGSPELLLEGAETVTPVVDPIGYGSLWYTSVGFGGLAQLRSGERVYVNISHPDMVDYRRGKTFFGAVMVGLNPELPAAHLIGAWMSGQGLSWEASQEEAFLRSGAQFSPTHGLALPQDGVYYLYCHVGYRGRTPPAGRSRARSLTLRSALYRAGGAYGRGSPELLLEGAETVTPVVDPIGYGSLWYTSVGFGGLAQLRSGERVYVNISHPDMVDYRRGKTFFGAVMVG", "notes": "also called mouse LTαββ; mouse (deglycosylated) IgG1 Fc-mouse lymphotoxin-αββ heterotrimer fusion protein"}}, "key": {"[1]": {"target": "T1, human LTβR ecd, CD4TM and GFP (human, UniProt P36941 31-227)", "T1 construct": "extracellular domain; also called hLTβR; hLThR-GFP; not shown: CD4 transmembrane domain and GFP fused after the extracellular domain", "T1 sequence (P36941 31-227)": "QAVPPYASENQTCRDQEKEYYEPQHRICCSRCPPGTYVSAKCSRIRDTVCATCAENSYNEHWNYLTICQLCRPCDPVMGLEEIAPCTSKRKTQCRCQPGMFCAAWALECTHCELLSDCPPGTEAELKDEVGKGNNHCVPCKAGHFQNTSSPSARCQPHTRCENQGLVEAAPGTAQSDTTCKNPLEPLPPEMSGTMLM", "experiment": "flow cytometry on HEK 293T cells transiently transfected with human LTβR ecd-CD4TM-GFP (row 'hLTBR GFP'); '0.5 ug/ml' printed at the upper left of the figure; APC-conjugated Fc secondary", "procedure": "(§1) To test the binding of the different c-terminal human lymphotoxin heterotrimer constructs to human and mouse LTβR, HEK 293T cells were transiently transfected with cDNA expression vectors encoding cDNA for human or mouse LTβR ecd, CD4TM and GFP. Cells were then incubated with the various human lymphotoxin constructs 363F2, 363F3, or 363F4, washed and stained with APC-conjugated Fc secondary antibody. Mouse (deglycosylated) IgG1 Fc-mouse lymphotoxin-αββ heterotrimer fusion protein 363F1 was also tested. Binding of the lymphotoxin constructs was then assessed by flow cytometry using a Canto II FACS instrument (BD Biosciences) and analyzed using FlowJo software."}, "[2]": {"target": "T2, membrane-bound extracellular domain of mouse LTβR (mLTβR-CD4TM-GFP) (mouse, UniProt P50284 31-223)", "T2 construct": "extracellular domain; also called mouse LTβR ecd, CD4TM and GFP; mLThR-GFP; not shown: CD4 transmembrane domain and GFP fused after the extracellular domain", "T2 sequence (P50284 31-223)": "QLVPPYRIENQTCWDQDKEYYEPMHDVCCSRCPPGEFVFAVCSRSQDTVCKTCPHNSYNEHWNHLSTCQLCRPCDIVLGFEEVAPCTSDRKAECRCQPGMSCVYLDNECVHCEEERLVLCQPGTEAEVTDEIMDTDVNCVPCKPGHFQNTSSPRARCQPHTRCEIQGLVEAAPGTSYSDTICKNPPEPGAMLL", "experiment": "flow cytometry on HEK 293T cells transiently transfected with mouse LTβR ecd-CD4TM-GFP (row 'mLTBR GFP'); '0.5 ug/ml' printed at the upper left of the figure; APC-conjugated Fc secondary", "procedure": "as §1"}}}
{"binder": "B1", "values": [{"measurement": "MFI", "setting": "[1]", "result": 2260}, {"measurement": "MFI", "setting": "[2]", "result": 4740}]}
